Measured values as given in patent US20230295271A1 (UNIVERSITY OF SOUTHERN CALIFORNIA, published 2023).

How the values were obtained:
[1] = target: T1, recombinant mouse artemin protein (Ala112-Gly224 fragment) (mouse, UniProt Q9Z0L2 112-224); assay: SPR (Biacore T100), purified VHH and mouse artemin, 1:1 model
T1 construct: range 112-224; Bought as lyophilized powder from R&D Systems
T1 sequence (looked up): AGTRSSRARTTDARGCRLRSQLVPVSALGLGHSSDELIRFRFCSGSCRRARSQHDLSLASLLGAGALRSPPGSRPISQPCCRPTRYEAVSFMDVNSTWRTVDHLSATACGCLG
Procedure: (§1) In some cases, scFv/VHH were further purified by gel filtration using Superdex 75 column (GE Healthcare). Proteins were concentrated using Amicon Ultra-15 10 kDa centrifugal filter unit (Millipore) and stored in PBS at −70° C. Titration ELISA. Titration ELISA was used to measure binding of purified scFv to GLP-1R. GLP-1R immobilization in a 96 well plate and blocking was carried out as described for phage ELISA. A purified scFv was prepared at varying concentrations (from 1 nM to 3 μM) in 2% MPBS. 100 μl scFv aliquot of each concentration was added to a well and incubated at RT for 1.5 h. The plate was then washed with TPBS and PBS three times each. Primary anti His-tag Mouse mAb (Cell signaling Technology, Inc.) was diluted 1:250 in 2% MPBS and added into each well. […] The absorbance was read at 450 nm, using SpectraMax iD5 microplate reader (Molecular Devices, LLC). The dissociation constant Kd was calculated according to a published protocol. […] Binding of purified VHH nanobodies to Artemin and to untagged FAAH proteins was determined using Biacore T100 instrument (GE Healthcare). […] Kinetic constants for binding interaction were determined by fitting the sensorgrams with 1:1 binding model using Biacore T100 evaluation software, version 2.0 (GE healthcare).

[2] = target: T2, human Glucagon-like peptide-1 receptor (GLP-1R), purified His6-tagged protein (human, UniProt P43220 24-463, limits assumed); assay: titration ELISA, apparent Kd compared with the parental scFv
T2 construct: Recombinant human His6-tagged GLP-1R purified from Sf9 biomass and immobilised on the plate for ELISA; also called purified GLP-1R protein

[3] = target: T2, human Glucagon-like peptide-1 receptor …; assay: titration ELISA, GLP-1R coated on the plate, purified scFv titrated; apparent Kd
[4] = target: T3, human fatty acid amide hydrolase (FAAH), amino acids 30-579 (human, UniProt O00519 30-579); assay: SPR (Biacore T100), purified VHH and untagged FAAH, 1:1 model
T3 construct: range 30-579; Expressed in E. coli as an MBP fusion; The MBP tag was cleaved with Factor Xa, and SPR used the untagged FAAH; also called untagged FAAH; purified human FAAH protein
T3 sequence (looked up): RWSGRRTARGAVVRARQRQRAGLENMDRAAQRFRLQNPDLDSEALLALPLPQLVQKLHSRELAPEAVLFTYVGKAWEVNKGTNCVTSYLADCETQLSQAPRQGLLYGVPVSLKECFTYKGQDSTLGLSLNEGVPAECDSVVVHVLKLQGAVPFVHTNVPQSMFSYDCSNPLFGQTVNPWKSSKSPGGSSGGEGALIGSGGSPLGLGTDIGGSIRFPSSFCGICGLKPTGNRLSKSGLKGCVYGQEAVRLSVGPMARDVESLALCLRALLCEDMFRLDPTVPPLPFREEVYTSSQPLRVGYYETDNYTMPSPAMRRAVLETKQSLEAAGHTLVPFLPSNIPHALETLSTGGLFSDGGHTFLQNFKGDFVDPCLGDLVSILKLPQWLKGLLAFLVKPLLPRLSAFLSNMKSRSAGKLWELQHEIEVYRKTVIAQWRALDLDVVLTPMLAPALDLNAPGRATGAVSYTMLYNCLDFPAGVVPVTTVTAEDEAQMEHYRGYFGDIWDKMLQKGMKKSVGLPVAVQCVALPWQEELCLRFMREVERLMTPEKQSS
Procedure: as §1

[5] = target: T3, human fatty acid amide hydrolase …; assay: SPR (Biacore T100), compared with parent A3 nanobody
Procedure: as §1

B1: LM52 VHH nanobody (VHH)
VHH: VQLVESGGGLVQAGASLRLSCAASGGTLVNSSMGWFRQAPGKERDFVATINWRGDTTWYGESVKGRFSISRDNTKNMVYLQMNSLKPEDTAVYYCAVYRTRYYTGRRMMSPDEYDVWGQGTQVTVHH
notes: From the mutagenized llama VHH library; likely a mutant variant of LU5
- Kd [1]: 102 nM

B2: GHM33 scFv (scFv)
scFv: VQLVQSGAEVKKPGSSVKVSCKASGGTFSSYAISWVRQAPGQGLEWMGGIIPIFGTANYAQKFQGRVTITADESTSTAYMELSSLRSEDTAVYYCARGRDDYYDSSAFDYWGQGTLVTVGGGGSGGGGSGGGGSGGGGSVLTQPPSVSVAPGQTARVTCGGNKIGSYSVYWYQHKPGQAPVLVVYDDSDRPSGIPERFSGSNSGNMATLTISGVEAGDEADYYCQVWDCTTDDVIFGGGTKLTVLHHHHHH
notes: Purified soluble His6-tagged scFv expressed from pADL-20c in the E. coli periplasm; The printed VH and VL start at the second residue and stop before the end of the J region; also called mutated scFv clone (GHM33); anti-GLP-1R scFv
- fold lower Kd than the parental scFv [2]: ~3 fold
- Kd [3]: 100 nM

B3: OD1 VHH nanobody (VHH)
VHH: VQLVESGGGLVQAGGSLRLSCAASGRTFSDNTMAWHRQGPGKQRGLVAFITTGGRTVYTDSVKGRFIISRDNAKNTGFLQMNSLKPEDTAVYYCYVAGNWGQGTQVTVHH
notes: Purified soluble His6-tagged llama VHH; also called mutated VHH clone (OD1)
- Kd [4]: 0.65 nM
- fold increase in FAAH affinity compared to parent VHH A3 [5]: ~2.4 fold
